Each block holds one binder with its values, some of them ahead of it.
Legend:
[1] = target: T1, rHuman ErbB2/Fc Chimera, CF (R&D Systems Cat#1129-ER) (human, UniProt P04626 23-652); assay: ECL multispot (MSD) assay, antigen spotted on plate; blank spot of this row 511
T1 construct: Bought recombinant protein; also called human epidermal growth factor 2 receptor; Fc part of the bought chimera not given

[2] = target: T2, rHuman Notch-1/Fc Chimera, CF (R&D Systems Cat#3647-TK) (human, UniProt P46531 19-526); assay: as above
T2 construct: Bought recombinant protein; Fc part of the bought chimera not given

[3] = target: T3, rHuman EGF R/Fc Chimera, CF (R&D Systems Cat#344-ER) (human, UniProt P00533 25-645); assay: as above
T3 construct: Bought recombinant protein; also called epidermal growth factor receptor; Fc part of the bought chimera not given

[4] = target: T4, rHuman Erythropoietin R/Fc Chimera, CF (R&D Systems Cat#963-ER) (human, UniProt P19235 25-250); assay: as above
T4 construct: Bought recombinant protein; also called EPO R; EPO R/Fc; Fc part of the bought chimera not given
T4 sequence (looked up): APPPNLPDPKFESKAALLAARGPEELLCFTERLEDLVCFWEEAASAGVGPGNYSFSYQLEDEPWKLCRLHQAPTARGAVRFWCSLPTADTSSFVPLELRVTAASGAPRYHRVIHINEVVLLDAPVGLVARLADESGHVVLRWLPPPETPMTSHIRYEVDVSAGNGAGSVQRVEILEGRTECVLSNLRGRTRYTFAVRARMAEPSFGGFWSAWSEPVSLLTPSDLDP

[5] = target: T5, rHuman CD44/Fc Chimera, CF (R&D Systems Cat#3660-CD) (human, UniProt P16070 21-220); assay: as above
T5 construct: Bought recombinant protein; Fc part of the bought chimera not given

[6] = target: T6, rHuman P-Cadherin/Fc Chimera, CF (R&D Systems Cat#861-PC) (human, UniProt P22223 108-654); assay: as above
T6 construct: Bought recombinant protein; Fc part of the bought chimera not given

[7] = target: T7, rHuman IGF-1 sR, (IGF-1 sR), CF (R&D Systems Cat#391-GR) (human, UniProt P08069 31-932); assay: as above
T7 construct: Bought recombinant soluble receptor; also called insulin-like growth factor-1 soluble receptor

[8] = target: T8, rHuman HGF R/c-MET/Fc Chimera, CF (R&D Systems Cat#358-MT/CF) (human, UniProt P08581 25-932); assay: as above
T8 construct: Bought recombinant protein; also called HGF R/Fc; hepatocyte growth factor receptor; Fc part of the bought chimera not given
T8 sequence (P08581 25-932, change not shown): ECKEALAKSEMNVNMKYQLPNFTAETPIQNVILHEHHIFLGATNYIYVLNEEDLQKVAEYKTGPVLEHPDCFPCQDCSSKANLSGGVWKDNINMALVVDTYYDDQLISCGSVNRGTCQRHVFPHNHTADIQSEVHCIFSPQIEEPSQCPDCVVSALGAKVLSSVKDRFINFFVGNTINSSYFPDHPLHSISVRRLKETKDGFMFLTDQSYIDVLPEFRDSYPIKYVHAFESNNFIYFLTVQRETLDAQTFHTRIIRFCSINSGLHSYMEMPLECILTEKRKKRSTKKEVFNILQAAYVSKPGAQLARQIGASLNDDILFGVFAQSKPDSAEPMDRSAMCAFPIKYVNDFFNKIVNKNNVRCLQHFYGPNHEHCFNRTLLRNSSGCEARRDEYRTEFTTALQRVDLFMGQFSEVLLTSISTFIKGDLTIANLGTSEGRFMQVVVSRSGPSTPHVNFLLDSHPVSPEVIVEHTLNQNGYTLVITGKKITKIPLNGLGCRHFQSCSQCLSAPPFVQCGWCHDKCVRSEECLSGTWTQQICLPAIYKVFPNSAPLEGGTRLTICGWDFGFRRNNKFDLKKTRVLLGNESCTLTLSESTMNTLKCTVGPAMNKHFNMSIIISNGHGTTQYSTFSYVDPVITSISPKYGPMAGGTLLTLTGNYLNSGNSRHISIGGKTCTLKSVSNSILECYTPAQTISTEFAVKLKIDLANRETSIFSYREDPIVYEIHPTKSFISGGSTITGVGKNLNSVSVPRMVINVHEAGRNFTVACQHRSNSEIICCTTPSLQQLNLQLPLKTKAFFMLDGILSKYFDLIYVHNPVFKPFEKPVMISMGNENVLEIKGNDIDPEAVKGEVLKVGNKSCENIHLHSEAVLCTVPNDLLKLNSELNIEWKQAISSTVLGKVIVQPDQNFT

[9] = target: T9, Recombinant Human DLL4 (R&D Systems Cat#1506-D4/CF) (human, UniProt Q9NR61 27-524); assay: as above
T9 construct: Bought recombinant protein; also called delta-like protein 4; rHuman DLL4

[10] = target: T10, rHuman Erythropoietin R/Fc Chimera, CF (human, UniProt P19235 25-250); assay: ECL multispot (MSD) assay, antigen spotted on the plate, Fab in solution; blank spot of the same well 298
T10 construct: Bought from R&D Systems; also called EPO R; EPO R/Fc; Fc part of the bought chimera not given
T10 sequence (looked up): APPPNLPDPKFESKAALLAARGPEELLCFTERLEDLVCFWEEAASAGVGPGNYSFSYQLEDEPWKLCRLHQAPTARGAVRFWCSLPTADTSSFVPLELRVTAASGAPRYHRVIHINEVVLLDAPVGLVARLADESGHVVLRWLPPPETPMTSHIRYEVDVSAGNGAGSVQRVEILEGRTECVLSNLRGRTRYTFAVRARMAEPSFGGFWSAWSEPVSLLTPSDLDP

Recombinant Human DLL4 = target: T11, Recombinant Human DLL4 (human, UniProt Q9NR61 27-524); assay: as above
T11 construct: Bought from R&D Systems; also called delta-like protein 4; rHuman DLL4

[11] = target: T12, rHuman Notch-1/Fc Chimera, CF (human, UniProt P46531 19-526); assay: as above
T12 construct: Bought from R&D Systems; Fc part of the bought chimera not given

[12] = target: T13, rHuman IGF-1 sR, (IGF-1 sR), CF (human, UniProt P08069 31-932); assay: as above
T13 construct: Bought from R&D Systems as a soluble receptor; also called insulin-like growth factor-1 soluble receptor

[13] = target: T14, rHuman EGF R/Fc Chimera, CF (human, UniProt P00533 25-645); assay: as above
T14 construct: Bought from R&D Systems; also called epidermal growth factor receptor; Fc part of the bought chimera not given

[14] = target: T15, rHuman CD44/Fc Chimera, CF (human, UniProt P16070 21-220); assay: as above
T15 construct: Bought from R&D Systems; Fc part of the bought chimera not given

[15] = target: T16, rHuman P-Cadherin/Fc Chimera, CF (human, UniProt P22223 108-654); assay: as above
T16 construct: Bought from R&D Systems; Fc part of the bought chimera not given

[16] = target: T17, rHuman HGF R/c-MET/Fc Chimera, CF (human, UniProt P08581 25-932); assay: as above
T17 construct: Bought from R&D Systems; also called HGF R/Fc; hepatocyte growth factor receptor; Fc part of the bought chimera not given
T17 sequence (P08581 25-932, change not shown): as the sequence (P08581 25-932, change not shown) above

[17] = target: T18, rHuman ErbB2/Fc Chimera, CF (human, UniProt P04626 23-652); assay: as above
T18 construct: Bought from R&D Systems; also called human epidermal growth factor 2 receptor; Fc part of the bought chimera not given

[18] = target: T1, rHuman ErbB2/Fc Chimera, CF (R&D …); assay: ECL multispot (MSD) assay, antigen spotted on plate; blank spot of this row 332
[19] = target: T2, rHuman Notch-1/Fc Chimera, CF (R&D …); assay: as above
[20] = target: T3, rHuman EGF R/Fc Chimera, CF (R&D …); assay: as above
[21] = target: T4, rHuman Erythropoietin R/Fc Chimera, CF …; assay: as above
[22] = target: T5, rHuman CD44/Fc Chimera, CF (R&D Systems …); assay: as above
[23] = target: T6, rHuman P-Cadherin/Fc Chimera, CF (R&D …); assay: as above
[24] = target: T7, rHuman IGF-1 sR, (IGF-1 sR), CF (R&D …); assay: as above
[25] = target: T8, rHuman HGF R/c-MET/Fc Chimera, CF (R&D …); assay: as above
[26] = target: T9, Recombinant Human DLL4 (R&D Systems …); assay: as above
[27] = target: T1, rHuman ErbB2/Fc Chimera, CF (R&D …); assay: ECL multispot (MSD) assay, antigen spotted on plate; blank spot of this row 294
[28] = target: T2, rHuman Notch-1/Fc Chimera, CF (R&D …); assay: as above
[29] = target: T3, rHuman EGF R/Fc Chimera, CF (R&D …); assay: as above
[30] = target: T4, rHuman Erythropoietin R/Fc Chimera, CF …; assay: as above
[31] = target: T5, rHuman CD44/Fc Chimera, CF (R&D Systems …); assay: as above
[32] = target: T6, rHuman P-Cadherin/Fc Chimera, CF (R&D …); assay: as above
[33] = target: T7, rHuman IGF-1 sR, (IGF-1 sR), CF (R&D …); assay: as above
[34] = target: T8, rHuman HGF R/c-MET/Fc Chimera, CF (R&D …); assay: as above
[35] = target: T9, Recombinant Human DLL4 (R&D Systems …); assay: as above

ECL signal [1]: 262
ECL signal [2]: 334
ECL signal [3]: 355
ECL signal [4]: 522
ECL signal [5]: 370
ECL signal [6]: 471
ECL signal [7]: 505
ECL signal [8]: 221
ECL signal [9]: 179000
B1: Fab VH1-46_IGHD6-6*01_IGHJ1*01 S102A/S103P/S104F/H111F (APFF) & L6_IGKJ1*01 S31K (Fab, V domains shown)
VH: QVQLVQSGAEVKKPGASVKVSCKASGYTFTSYYMHWVRQAPGQGLEWMGIINPSGGSTSYAQKFQGRVTMTRDTSTSTVYMELSSLRSEDTAVYYCAREEYAPFSAEYFQFWGQGTLVTVSS
VL: EIVLTQSPATLSLSPGERATLSCRASQSVSKYLAWYQQKPGQAPRLLIYDASNRATGIPARFSGSGSGTDFTLTISSLEPEDFAVYYCQQRSNWPPWTFGQGTKVEIKR
notes: Fab made in E. coli: VH cloned into Plasmid A (CH1, His6 and Flag tags), kappa VL into Plasmid C (kappa CL); also called APFF / S31K

ECL signal [10]: 465
ECL signal (Recombinant Human DLL4): 166000
ECL signal [11]: 358
ECL signal [12]: 374
ECL signal [13]: 331
ECL signal [14]: 423
ECL signal [15]: 270
ECL signal [16]: 261
ECL signal [17]: 313
B2: Fab VH1-46_IGHD6-6*01_IGHJ1*01 S102A/S103P/S104F/H111F (APFF) & L6_IGKJ1*01 S31R (Fab, V domains shown)
VH: QVQLVQSGAEVKKPGASVKVSCKASGYTFTSYYMHWVRQAPGQGLEWMGIINPSGGSTSYAQKFQGRVTMTRDTSTSTVYMELSSLRSEDTAVYYCAREEYAPFSAEYFQFWGQGTLVTVSS
VL: EIVLTQSPATLSLSPGERATLSCRASQSVSRYLAWYQQKPGQAPRLLIYDASNRATGIPARFSGSGSGTDFTLTISSLEPEDFAVYYCQQRSNWPPWTFGQGTKVEIKR
notes: Tested as an E. coli Fab; The heavy chain carries CH1 with His6 and Flag tags from plasmid A, the light chain a kappa CL from plasmid C; also called APFF / S31R; H:APFF & L6_IGKJ1*01 S31R

ECL signal [18]: 285
ECL signal [19]: 261
ECL signal [20]: 351
ECL signal [21]: 423
ECL signal [22]: 384
ECL signal [23]: 332
ECL signal [24]: 303
ECL signal [25]: 432
ECL signal [26]: 191000
B3: Fab VH1-46_IGHD6-6*01_IGHJ1*01 S102A/S103P/S104F/H111F (APFF) & L6_IGKJ1*01 S31T (Fab, V domains shown)
VH: QVQLVQSGAEVKKPGASVKVSCKASGYTFTSYYMHWVRQAPGQGLEWMGIINPSGGSTSYAQKFQGRVTMTRDTSTSTVYMELSSLRSEDTAVYYCAREEYAPFSAEYFQFWGQGTLVTVSS
VL: EIVLTQSPATLSLSPGERATLSCRASQSVSTYLAWYQQKPGQAPRLLIYDASNRATGIPARFSGSGSGTDFTLTISSLEPEDFAVYYCQQRSNWPPWTFGQGTKVEIKR
notes: Fab made in E. coli: VH cloned into Plasmid A (CH1, His6 and Flag tags), kappa VL into Plasmid C (kappa CL); also called APFF / S31T

ECL signal [27]: 197
ECL signal [28]: 267
ECL signal [29]: 246
ECL signal [30]: 363
ECL signal [31]: 384
ECL signal [32]: 342
ECL signal [33]: 379
ECL signal [34]: 300
ECL signal [35]: 178000
B4: Fab VH1-46_IGHD6-6*01_IGHJ1*01 S102A/S103P/S104F/H111F (APFF) & L6_IGKJ1*01 S31N (Fab, V domains shown)
VH: QVQLVQSGAEVKKPGASVKVSCKASGYTFTSYYMHWVRQAPGQGLEWMGIINPSGGSTSYAQKFQGRVTMTRDTSTSTVYMELSSLRSEDTAVYYCAREEYAPFSAEYFQFWGQGTLVTVSS
VL: EIVLTQSPATLSLSPGERATLSCRASQSVSNYLAWYQQKPGQAPRLLIYDASNRATGIPARFSGSGSGTDFTLTISSLEPEDFAVYYCQQRSNWPPWTFGQGTKVEIKR
notes: Fab made in E. coli: VH cloned into Plasmid A (CH1, His6 and Flag tags), kappa VL into Plasmid C (kappa CL); also called APFF / S31N
